Patent US20220111022A1 (IMMATICS BIOTECHNOLOGIES, published 2022)

The binders below were run against T1, HLA-A*02:01 (human) (assay: UV-ligand exchange, anti-b2m ELISA; peptide exchange yield grade).
T1 construct: MHC monomers first loaded with a UV-sensitive peptide (not identified) that is cleaved and exchanged for the test peptide; captured on streptavidin-coated plates and detected with anti-β2m; also called peptide-receptive MHC molecules; MHC class I
Source text: Candidate peptides for T cell based therapies according to the present invention were further tested for their MHC binding capacity (affinity). The individual peptide-MHC complexes were produced by UV-ligand exchange, where a UV-sensitive peptide is cleaved upon UV-irradiation and exchanged with the peptide of interest as analyzed. Only peptide candidates that can effectively bind and stabilize the peptide-receptive MHC molecules prevent dissociation of the MHC complexes. To determine the yield of the exchange reaction, an ELISA was performed based on the detection of the light chain (β2m) of stabilized MHC complexes. The assay was performed as generally described in Rodenko et al. (Rodenko et al., 2006).
96 well MAXISorp plates (NUNC) were coated over night with 2 μg/ml streptavidin in PBS at room temperature, washed 4× and blocked for 1 h at 37° C. in 2% BSA containing blocking buffer. Refolded HLA-A*02:01/MLA-001 monomers served as standards, covering the range of 15-500 ng/ml. Peptide-MHC monomers of the UV-exchange reaction were diluted 100-fold in blocking buffer. Samples were incubated for 1 h at 37° C., washed four times, incubated with 2 μg/ml HRP conjugated anti-β2m for 1h at 37° C., washed again and detected with TMB solution that is stopped with […]. Absorption was measured at 450 nm. Candidate peptides that show a high exchange yield (preferably higher than 50%, most preferred higher than 75%) are generally preferred for a generation and production of antibodies or fragments thereof, and/or T cell receptors or fragments thereof, as they show sufficient avidity to the MHC molecules and prevent dissociation of the MHC complexes.
For ILDSTTIEI, the peptide exchange yield was no less than 75%.
FLGEDISNFL showed a peptide exchange yield of no less than 75%.
SLLFQDITL was tested, and the peptide exchange yield was no less than 75%.
For TLDATVVEL, the peptide exchange yield was no less than 75%.
With WLIDKSMEL the peptide exchange yield was no less than 75%.
Work on GLVDGSSVTV yielded a peptide exchange yield of no less than 75%.
FVDEHTIDI showed a peptide exchange yield of 50 to 75%.
VLMDGTLKQV was tested, and the peptide exchange yield was no less than 75%.
For YIYDGKDMSSL, the peptide exchange yield was 50 to 75%.
With VLDDTLVIF the peptide exchange yield was 50 to 75%.
With KLISDMGKDVSA the peptide exchange yield was 50 to 75%.
NVDSTILNL was tested, and the peptide exchange yield was no less than 75%.
With ILDEAKDISF the peptide exchange yield was 50 to 75%.
RLLDTTDVYLL was tested, and the peptide exchange yield was no less than 75%.
With RLLEGDFSL the peptide exchange yield was no less than 75%.
For SLFAYPLPDV, the peptide exchange yield was no less than 75%.
FLNLFDHTL gave a peptide exchange yield of no less than 75%.
HMIDLTIHL gave a peptide exchange yield of 50 to 75%.
Work on FLGPIVDL yielded a peptide exchange yield of no less than 75%.
QLLGRDISL was tested, and the peptide exchange yield was no less than 75%.
With FMNDRSFIL the peptide exchange yield was no less than 75%.
In the case of ILYDGSNIQL, the peptide exchange yield is reported as no less than 75%.
Work on YLFEDISQL yielded a peptide exchange yield of no less than 75%.
In the case of FLLDGTDMFHM, the peptide exchange yield is reported as 50 to 75%.
Binder KLLDLTVRI has a peptide exchange yield of no less than 75%.
Binder YMDGTMSQV has a peptide exchange yield of 50 to 75%.
QLMEKVQDV showed a peptide exchange yield of 50 to 75%.
TLIDATWLV was tested, and the peptide exchange yield was no less than 75%.
Work on ALADLTGTVVNL yielded a peptide exchange yield of no less than 75%.
In the case of ILFDLTHRV, the peptide exchange yield is reported as no less than 75%.
In the case of SLLDGSESAKL, the peptide exchange yield is reported as no less than 75%.
SLRDGTEVV gave a peptide exchange yield of 50 to 75%.
SLYDFTGEQMAA showed a peptide exchange yield of 50 to 75%.
In the case of AIDDTAARL, the peptide exchange yield is reported as 50 to 75%.
Binder AVDGTDARL has a peptide exchange yield of 50 to 75%.
For AVFDQTVTVI, the peptide exchange yield was 50 to 75%.
YVWDRTELL showed a peptide exchange yield of no less than 75%.
Binder FLDQTDETL has a peptide exchange yield of 50 to 75%.
Binder FLDTSTADV has a peptide exchange yield of no less than 75%.
IQDTSHLAV gave a peptide exchange yield of 50 to 75%.
KLLNDLTSI showed a peptide exchange yield of no less than 75%.
For LLDATHQI, the peptide exchange yield was no less than 75%.
With SLFDDSFSL the peptide exchange yield was no less than 75%.
For SLSDVSQAV, the peptide exchange yield was 50 to 75%.
For VIDSTLVKV, the peptide exchange yield was 50 to 75%.
In the case of AIYHDITGISV, the peptide exchange yield is reported as 50 to 75%.
With ALDDYTITF the peptide exchange yield was no less than 75%.
ALPQFFNDV showed a peptide exchange yield of no less than 75%.
Binder ALYDSTRELL has a peptide exchange yield of no less than 75%.
For HLCNHDVSL, the peptide exchange yield was no less than 75%.
For ILFDDSVFTL, the peptide exchange yield was no less than 75%.
For ILTDITGHDV, the peptide exchange yield was 50 to 75%.
For KLEERVYDV, the peptide exchange yield was no less than 75%.
KTWDQSIAL gave a peptide exchange yield of no less than 75%.
With LLDSTAHLL the peptide exchange yield was no less than 75%.
SLDISLPNL gave a peptide exchange yield of no less than 75%.
Binder SQDASLLKV has a peptide exchange yield of 50 to 75%.
Work on SQTDLSPAL yielded a peptide exchange yield of no less than 75%.
Work on NLYNDLTNV yielded a peptide exchange yield of 50 to 75%.
For TLDITIVNL, the peptide exchange yield was no less than 75%.
Work on FISDFTMTI yielded a peptide exchange yield of no less than 75%.
Binder FLKDVTAQI has a peptide exchange yield of no less than 75%.
In the case of GLDRTQLVNV, the peptide exchange yield is reported as no less than 75%.
Binder ILFDPDNSSAL has a peptide exchange yield of no less than 75%.
For ILLDKSTVL, the peptide exchange yield was no less than 75%.
For LLDDQTVTF, the peptide exchange yield was 50 to 75%.
